In this experiment the target is small capsid protein (SCP, VP26) of pseudorabies virus (pseudorabies virus (PRV), Bartha strain). Put plainly: cryo-EM structure.

Usually stoichiometry N stands for a count of units in the complex or per binding partner. “small capsid protein (SCP, VP26) of pseudorabies virus (natural protein)” showed a stoichiometry N of 6.

Source of the values: paper PMC8940892.
